Substrate: O=C(CO)[C@H](O)[C@H](O)COP(=O)(O)O
Test: purified protein, by the assay type
Set-up: Recombinant RPIB isomerase kinetics, R5P to Ru5P (direct) or Ru5P to R5P (reverse)
Text: LiRPIB and LmRPIB recombinant proteins, containing a 6-histidine N-terminal tag, were expressed in Escherichia coli and purified by affinity chromatography under native conditions. Coomassie blue is represented in Fig. 1b, showing that both proteins have the predicted MW for the monomer (LiRPIB ~20.83, LmRPIB ~20.78 kDa). […] Additionally, recombinant LiRPIB was used to immunise rabbits to produce polyclonal anti-LiRPIB antibodies. Those antibodies recognise the recombinant protein and a single band in an extract of L. infantum promastigotes with the expected MW (~18.6 kDa, [web.expasy.org/protparam]) (Fig. 1c). […] The reverse reaction, which generates R5P, seems to be favoured, with both enzymes presenting lower Km values and higher vmax and kcat.

Row | Protein | Km [µM] | Vmax [µM/min] | kcat [s⁻¹]
1 | LiRPIB (Leishmania infantum) (protein) MPKRVALGCDHAAYATHQEIMDMVNASGAASKVMYMGPSSDTSVDYPDYAAQVCEAILKGEADTGILVCGTGIGMSIAANKFRGIRAALCYDHVTAQLSRQHNNAHILCIGVRTSGMEVIRDIIETFLTTEPLAEGRHGNRVDKITVIEEEQMKDEQRWCFSGCGGLKEEGK | 2820 ± 300 | 930 | 115 ± 3.86
2 | LmRPIB (Leishmania major) (protein) MSKRVALGCDHAAYAAHREIMDMISASGAVSKVMYMGPSSDTSVDYPDYAAQVCEAILKGEADAGILVCGTGIGMSIAANKFRGIRAALCYDHVTAQLSRQHNNAHILCIGVRTSGMEIIRDIITTFLTTEPLAEGRHSNRVDKITVIEEEQMKDEQRCCFSGCGGRKEEGK | 3010 ± 540 | 1040 | 128 ± 7.33
